The data set is described as follows: label from the status in PepcDB records.

Protein production data for 19 sequences are collected here from a protein production outcome set (Wang et al. 2014).

Take “MPSSFNVESADGYERLMGRWSRKLAPMLIDFAGLADGDRVLDVGCGTGSLAFTLAETSGLQEIAAVDYSPVFVEAATRRNTDPRVSIRQADACALPFEDDRFDRAMSLLVLHFVPEAGKAVSEMRRVVRPGGVVAAAVWDHYGGMSGMRMMWDTVAMLDEGALPLRRKYCFQPMMRPGEMKESFIAQGLADVEETSLLIRMEYVSFADYWEPIAAGEGPLGKYVAGLDPAKRKAVDAAMRAAYEAGEPDGPRSFAAVAWACRGRVPGQS”: the protein production entry is reported as “failed”.
In the case of “MPSSMLSHDPVLTWSIVALATAGVIIRPMRWPEAVWAVAGAVALVALGLLSWQDALAGVRNGIDVYLFLIGMMLIAELAQREGLFDYLAAYAVEHARGSPQRLFLLVYAVGVLVTVLLSNDATAIVLTPAVYAATRAAGAAPLPYLFVCAFIANAASFVLPISNPANLVVFGEHMPHLGGWLQQFTLPSLAAILATYLVLRLALRRSLAGQTIETRVETPHLSRGGKLAAVGIGAIAIVLLTASALNVALGLPTFVCGLVTTAVVLAIARQSPVPVLKGVSWSVVPLVAGLFVMVEALSRTGVIGALGGLLREAVADAPRLGSWAAGIVTAIACNIGNNLPVGLVAGSVAADNHLPRETIAALLIGVDLGPNFSVTGSLATILWLVVLRRNQIEVTAWRFLKLGLVVTPPALIAALAAAVW”, the protein production entry is listed as “failed”.
As for “MPSTLQGTFHTYRIIRRLGQGAFGEVSLAGVLETGEVVALKRIHIRNTGGIPDVVVREIKALQSVSHPNVVALLDVFPKGQAIYLVQEYCTTDLAALLRRLPAPPPERIAKGLMLQLCRGLEALHAEGIMHRDVKPSNTLLSAASGTAKLADCGLARPLDGGERPAYTHAVATRWYRAPELLYGARAYGPAVDVWALGLVFAELLGLSPLVPGDNDIDQLGRVIATFGSMEPVWLGVRALPDWGKIAFPHCEPLPLGDLLPGAPAAALEFLAAFLRYDPAKRITAACAVRSTYLTATQPL”, the protein production result is “failed”.
As to “MPSTQSLTVAAKTLRNRIFSRSGSTSAGPSRWATPGHEERPKGYFMNRTPPAPGQSRKWEDWELPCYITSFLTIVILGVGLNAKPDLSIETWAHQKALERLEMEKLATAGDSSD”, the protein production entry was “failed”.
As to “MPTIFQIPTFIQILEFIGTFAFAISGIRLASAKQFDWFGAYVAGVAVAIGGGTIRDVLLDVTPFWMTNPIYLICSALALLWVIFFRKHLIHMHNTFFIFDSIGLALFTVVGISKTIDLGYAFWVAIIMGTMTGAAGGVIRDVFINEIPLIFRKEIYAMACVIGGVIYWGLDRFGVDAALTQVISGCCIFVVRALAVKYQICLPILKGE”, the protein production result is given as “failed”.
Turning to “MPTINQLIRKERKKVVKKTKSPALVECPQRRGVCTRVYTTTPKKPNSALRKVAKVRLTSKFEVISYIPGEGHNLQEHSIVLVRGGRVKDLPGVKYHIVRGALDTAGVNKRTVSRSKYGTKKAKATDKKATDNKKK”, the protein production entry is recorded as “failed”.
On to “MPTKKMTRAQTCPHQTTVISNLKIIPLTLGWLLKSALLIIIIAVFIPLSPKMPAPGLDASWAVGLNQAVAQGLAFGKDIFFTLGPYSSIYTKFYHPATDFMMVGGSLYLALCYWIAIILLMQGIKWRWSIAFAILLFSMIYARDSLFFSYSLIIGLLIHKEISGKETSFKSNFCTLFALLFTPFGLFPLIKGSLLILSIITVLLCSLFLILYKQRNLAVLCLASPVVSILFFWIASGQSIFNLPAYVSNTILLASGFTEAMAIEGDNKELIFFGVTSSCILLSILLQKQLSPLSKAFLFCIYLVFLFLSYKTGFTRHFGHAFIAGTSVLLASFLLPYFNSNNKVIVPLLALSLYTASYINGHYTKISVRDNFISTYTAAYYGLKNRIQNKNWLKENFSLTMNYLKARDDFPRLPGTTDIYSYNQTSLIASGMTWSPRPIFQSYSVFTAKMAEINTNYLLSENKPDNILFKVEPIDNRIPSMEDGMSWPILINHYQPVRLENDFLFLRKKLVNKPVTSLVPLKTEIHTFGEQVKIPDTDKSLFVEIDIQPTLWGMLATTFFKPHQLEANLELKNGTQRQYRLISNMAKSGFLLSPFIENSAEFGLLFSQNNYLAGKKVISFSINSKQVPSSHWQTKYTIHYKTFASNN”, for which the protein production entry was “failed”.
As for “MPTTDLRKAQLQIHFCVLLWGITAILGKLITLQALPLVWWRMLIVVVALALWPRVWRGLRGLSGRVVLGYCGIGALVALHWLTFYGAIKLANASVAATCIALAPVFTAVIEPLVTHRPFRPRELLFGLAVLPGVALVVGGVPDGMRAGVVVGAISAVFVGLFGSLNKRMVAHADPLTVTALELGAGTLTLTLLAPAMPLLLPALHGDLLVVPSLHDGVLLLALSLACTLLPFALALVALRHLSAYSVQLVTNLEPVYAIVLAIALLGEQRELTLQFYLGVAIILGAVFLHPVLERRRTVAHPELLGTAEAKNIVD”, the protein production result is “failed”.
The value for “MPTTQLHHHYVLCGWHVRSALTLPELPPWSATATPVDADVVIEEGEVPDRLDLHDPVESWLSVGRDGSVLLQVPQVVRIHVHAGRAMRVQRLNRHDESWRLFLLGSALGYLCLQRSLFPLHAACLRIGTQTVAFAGHSGAGKSTLAAALLKRGHGLLSDDLTVIRLDSAGAIMVLPAFPRLKLWRDTLESLQLPVTDAPPVRPGMEKFDLRPSAGFDAAPVRLDAVVVLGDASEPHLQRLSPQHALPLLHGYLARPQAAVRMGLHAATFAHAAAIARQVPVWRLRRPRRFDALDITVDLIEAHVGALEHHHHHH” was “failed”; that for “MPTVKLTKNITIMTGSPNTLIYDNRVVIDLGGKNSSVDINAEVQLATHGHADHIAGLLKKDAKIRYLPKEDYWSLTLMGRRAMIYGCSSKDSDIFTFDYVKENIESIDIEVRTSEIEVIKLPGHTPGHSGYIVDNVLYAGDAFFGEKVLEGFSVPFYTDFWTALESLNKVKELAKSVNNIVISHGPVYTNKNKMVSILESNIIYAQNLIGKILDMLSNNELTVEEIVVKLKQDLTPSNVLLNSVVVRSILFGLENIEYNVSQKGLVFRRRVH” was “failed”; that for “MPVAISLPTSSTSHFFPRRRGHANHRYQRFSGAQSSTEDPYIRKNQTGVIIIGAGLAGLAAANQLTSKRIPFLLLEASDGVGGRVRTDIVDGFFLDRGFQIFITAYPEAKKLLDYEALDLQRFYAGAKVFYGGKFHTVADPLRHFWDSVASLANPIGSVVDKGLIALTRARVLIKSDEEILTAADEVPTIDLLRKIGFSETILDRFFRPFFGGIFFDRDLETTSKLFDFVFRCLALGENTLPAMGIGEISNQLAAKLPAKSVLLNTRVASIEYPNGSGSDPPSVRLQDGSVMKAELGVIIAVEQPEVNKLLDGIRDPVITKPARSTICLYFTAEPNQIPVQDPVLFLNGSNSGIINNMFFATNVARTYAPPGKALVSVSLIGLFEDRTDDDLAAEVLRELSGWFGESPVMSWKHLKTYRIQFAQPNQCPPTDLVKSPRVGSGLYLSGDYMTSATFDGALVSGRRAVEVLLRETGLIK” was “failed”.
The value for “MPVFRRHASQNCASIPPMMLFKRPDTETLYFALVNKDPAYEGVAYVCVTSTKIFCRFTCTARKPKIENCRFRETITECLEAGFRPCKRCKPMLSYGTPDGTVTALLTALENEPARRWREEDVVALGHDPSTVRRSFKRRFGMSFLEIARLRRVGDAAESLASGEAVIGAQIDAGYESGSGFRSAINQLFGTSPAAMKGRGFLKGDWIDTPIGPMLAVADDHALHLLEFADRPALPAELKRLKARTGADMVLGRTAVTGQIAAELAAYFAGRSGSFETRLAGHGTPFERDVWRNLREIPAGEIVSYSSLATAMERPTAVRAVARANGANQLAIVVPCHRVLGADGSLTGYGGGLWRKKWLIEHERRMARGQMLGMPLASLEHHHHHH” was “failed”; that for “MPVKRIAVFSTTHIGFLDMLGRSDGIIGVSRPEFVNTPAVRSRIRSGAIKAIGMPFSPDVEALLNLEPDLVIAPALPAARKTDYQALVQAGIPVLVVAEWLEPSPLGRAEWIKLFGALVGKEKLARERFAAIESSYLKIAALSRNLPLEHHHHHH” was “failed”.
For “MPVRRPCPGRPYRDLSSAPGTAVRAEPTTPLPPFALRTCACQTPGRDMSVNALTAVPSARSIPATSAFRGRIGCDARSGHYPVPGRYRLHLSPSCPHCLKIAVAHSLLGLEDACPVTLLPAVPDGPGGEHSALRPLYEASAHRYAGAAVAPVLSDDWSGRIVSTHAPDIMRDLARRFGGERPPLYPKGMEAEIEAVGHLCEQGINATAQRAGRADADDAERDSALGSLLRTLRSLEGRLARQDYLLGDRLTAADIELWVSLVQLDTVHRWHLDASAVHRVADHPALWAYARRLAGDPAFGAHLDLDGIARRHHAHCRGLEAAGAAVQIVEWAAHAPDRTASRQG”, the protein production entry is “failed”.
With “MPVTETIPLHETARERYLNYALSVITSRALPDIRDGLKPVQRRILFAMFDSLNLYPSKRHRKSATVVGETMGKYHPHGDKAIYDAMVRMAQSFSLRAPLVDGHGNFGSLDGDSAAAMRYTEAKLQPLAMEMLEGLRDETVDYRDNFDGSLEEPVVLPARVPNLLVNGASGIAVGMATNIPPHNLGEVVDAALHMIEEPEVDTSTLVRDHIQGPDFPTGGRILNTQDELAEIYETGSGTIEMRGAYRTKGKTRAIIESVPYGVDKSKIVEEIADHIAEENVPQLSNVRDESTDDVRIVLELKRGSDTEAAMAYLFKHTKLQKRFHVNLTCLVPTESTDVKAPKQVDLRTILRYFLDFRLDVVTRRLQNELAELEARIHILEGFETIFDALDEAIEIIRASKNKADAAQRLMHRFQLDEEQTDAILETQLYKLSQMEIEAIRDELGEKRARAEGIRRLLDDEDARWGIVKDELQDIRDEYTDERRSTLVGPGADMEYTEEDYIVDEDVHVIVTRDGWVKRQGTYSDLDAIRTRDGDEVGWALAGSTRATVGFFTNYGTCYTTRITEIPSTTGYGDPVQKLFSFDDGEHVVGVVSFDDRALPDPVPAEPSEQGELFDPDDPDAPDQPYVVAISKGGQATRFTLDGYLEPSISTGRKYMRLEDGDEVARVHLARGDENICLASHDGRALVFPVHQVSVYKGPAKGVRAIRLEDNDRVLDFALSTRARDGLTVETNNGREEIVRTTKFDATNRGAKGTLVIKRGYFAEVFPEPVEVPLHEAA”, the protein production entry is given as “failed”.
Turning to “MPVVECDIQTARAALADAGASFSDGNSEHELWHADLGDAHAVAYADKLVVQGGSPTDITAVVQPDRGGRVHAYFDGASRGNPGPAAVGWVLVSGDGGIVAEGGDTIGRATNNQAEYDALIAALEAAADFGFDDIELRGDSQLVEKQLTGAWDTNDPDLRRKRVRARELLTGFDDWSITHVPRATNERADALANEALDDA”, the protein production result was “failed”.
The entry for “MPYKTKSDLPESVKHVLPSHAQDIYKEAFNSAWDQYKDKEDRRDDASREETAHKVAWAAVKHEYAKGDDDKWHKKS” is “not failed”; for “MPYLAGCGAVLYVDVMPEGTLLTRGVSASPTRCGRTPPGGRGVWLLCATIFYWAVARFGMALFSLAPENITPLWLASGVGLIMCLEAGLSAVPCIALASAVANFPGLSASGGESPLLYAVLTGTADGLSAGLLAALGSRVLQGGITSVLDLLRGVVLVCLPATLIGGVAITLCLFTGGYVPRDVLCQMSFSLMAGDTLGVLLVFPLWRAWHVLPLPSRTELCWMAGVLCLCLLSIWSAFFVEGAAIHMLMPLLVLLSCNVRINGVMVVLFLTVIAVFIATAHRVGPFHMPTQGEAVMLLVSFAASTTLTTLGLSLYRHLLAQAGARATMWEQRAGIDPLTGLCNRARFDEVLLAELQRLQRQDSPLSLMMFDADHFKPYNDMYGHVAGDACLKRVAGVLRAVAHRASDVVARYGGEEFVCILPGTDRDSAYALAEKVRQGVRALAIPHVGSPVAGVLTVSAGVVTVHGCDGLDPQEVVAQVDRALYQAKGAGRDRVMVAKGAAKEGMQYGECALSGVQRLVWSEDYACGEPRIDASHRALLAKADSIMSSLGGADGLNARRACILALVDAVRMHFREEERVLAAIGYPKAGEHAVIHEALLQRGASLVAAWERGGMSLDDVVITLVHGMVMRHMLDDDSAFFEHVQQWGAGGTQP” it is “failed”.
Consider “MPYTVRFTTTARRDLHKLPPRILAAVVEFAFGDLSREPLRVGKPLRRELAGTFSARRGTYRLLYRIDDEHTTVVILRVDHRADIYRR”, for which the protein production result is recorded as “not failed”.
